From CN114031685A

Experiments:
[1] = molecular target: SARS-CoV-2 Beta株 S-ECD蛋白 (SARS-CoV-2 Beta株 (B.1.351))
[2] = molecular target: SARS-CoV-2 Omicron株 S-ECD蛋白 (SARS-CoV-2 Omicron株 (B.1.1.529))
[3] = molecular target: SARS-CoV-2 Delta株 S-ECD蛋白 (SARS-CoV-2 Delta株 (B.1.617.2))
[4] = molecular target: SARS-CoV-2 Alpha株 S-ECD蛋白 (SARS-CoV-2 Alpha株 (B.1.1.7))
[5] = molecular target: SARS-CoV-2 Gamma株 S-ECD蛋白 (SARS-CoV-2 Gamma株 (P.1))

B1: 抗SARS-CoV-2全人源单克隆抗体ZW2G10 (antibody, V domains shown)
VH: EVQLVESGGGLVQPGRSLRLSCAASGFTFDDYAMHWVRQAPGKGLEWVSGITWNSGTIGYADSVKGRFIISRDNAKNSLHLQMNSLRVEDTALYYCAKDNSDYSGYYWELENYGMDVWGQGTTVTVSS
VL: QSVLTQPPSVSGAPGQRVTISCTGSSSNIGAGYDVHWYQQLPGTAPKLLIYDNNNRPSGVPDRFSGSKSGTSASLAITGLQAEDEADYYCQSFDSSLSGVVFGGGTRLTVLR
[1]
  Kd: 0.518 nM
[2]
  Kd: 0.765 nM
[3]
  Kd: 5.45 nM
[4]
  Kd: 0.166 nM
[5]
  Kd: 0.615 nM
